Data published in patent US12553059B2, “Plant serine proteases” (priority 2018, dated 2026).
Entries after “also recorded” stand apart in the source; their conditions may differ.

Tests used:
HIV-1 UG37 gp140 = assay: ELISA antigen binding of 2G12 (I19R 2G12 precomplexed with anti-Fc); conditions: 2G12 (I19R variant) cleaved by apoplastic proteases
Description: A slightly modified ELISA procedure was used for the analysis of 2G12 containing an I19R mutation in the heavy chain (I19R 2G12). Wells were coated with 500 ng HIV-1 UG37 gp140 in PBS. […] (Doores K J et al. J Virol 84 (2010):10690-10699) prior to appropriate dilution and addition to the wells. Detection of antigen-bound mAb molecules was performed with 0.1 μg/mL goat anti-human kappa chain peroxidase conjugate (SIGMA-ALDRICH, A7164).

monoclonal antibody 2F5 = assay: In vitro degradation assay with purified proteases, substrate 2F5; format: biochemical; conditions: purified protease 10-100 μg/mL, pH 5.5
monoclonal antibody 2F5, sequence (as listed by the source): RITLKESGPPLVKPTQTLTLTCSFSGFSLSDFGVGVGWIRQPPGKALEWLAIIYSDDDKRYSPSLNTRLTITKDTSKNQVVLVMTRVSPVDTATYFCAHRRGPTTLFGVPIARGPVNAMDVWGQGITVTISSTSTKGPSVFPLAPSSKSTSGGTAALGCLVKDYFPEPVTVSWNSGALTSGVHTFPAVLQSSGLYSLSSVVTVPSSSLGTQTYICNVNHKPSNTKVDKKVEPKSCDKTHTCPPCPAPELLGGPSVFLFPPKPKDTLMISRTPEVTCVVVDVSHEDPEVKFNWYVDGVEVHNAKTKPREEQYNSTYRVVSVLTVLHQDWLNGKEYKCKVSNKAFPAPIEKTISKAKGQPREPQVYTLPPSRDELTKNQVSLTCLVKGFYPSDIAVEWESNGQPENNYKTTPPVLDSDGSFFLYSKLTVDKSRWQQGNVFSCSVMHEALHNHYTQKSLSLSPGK
Description: (§1) Leaves of Nicotiana benthamiana […] (Strasser R et al. Plant Biotechnol J 6 (2008):392-402) expressing a subtilisin-like serine protease construct were submerged in extraction buffer (50 mM sodium phosphate/200 mM KCl, pH 7.0) prior to vacuum exposure in a desiccator. Exogenous buffer was removed prior to centrifugation of the leaves for 15 min at 2000 g and 4° C. The recovered solution was then supplemented with 20 mM imidazole and loaded on a 1 mL column of Chelating Sepharose (GE […]) charged with Ni^2+ ions. After washing with the same buffer, the recombinant subtilisin-like serine protease was eluted with 250 mM imidazole in extraction buffer. Protein-containing eluate fractions were pooled, dialysed twice against 2 liters of extraction buffer and then concentrated by ultrafiltration using Microsep Advance centrifugal devices (10K MWCO; PALL CORPORATION).
(§2) After incubation for up to 16 h, reactions were stopped by addition of SDS-PAGE sample buffer.
(§3) For isolation of mAb degradation products, antibodies ([…]) were digested with apoplastic fluid or purified subtilisin-like serine proteases in 500 μL 100 mM sodium acetate (pH 5.5) to completion. After addition of 10 μL settled rProtein A Sepharose 4 Fast Flow beads, the samples were incubated for 2 h at 4° C. under constant agitation. The beads were then collected by centrifugation, washed four times with 500 μL PBS prior to elution of the bound antibody fragments with 100 μL 100 mM glycine (pH 3.0). The eluate was immediately neutralized with 10 μL 1 M Tris/HCl (pH 8.0). This elution/neutralization cycle was repeated four times. […]
(§4) N-terminal sequence analysis of bands blotted on polyvinylidene difluoride membranes (BIO-RAD) was performed by Edman degradation (Niemer M et al. Biotechnol J 9 (2014):493-500). […] Eluted polypeptides were analysed online on a maxis 4G ETD Q-TOF mass spectrometer (BRUKER, Billerica, USA) equipped with an electrospray ionization source and operated in the positive ion mode (m/z range: 400-3800). […]

PG9 = assay: In vitro degradation assay with purified proteases, substrate PG9; format: biochemical; conditions: for cleavage / degradation of PG9 by purified protease: purified protease 10-100 μg/mL, pH 5.5
PG9, sequence (as listed by the source): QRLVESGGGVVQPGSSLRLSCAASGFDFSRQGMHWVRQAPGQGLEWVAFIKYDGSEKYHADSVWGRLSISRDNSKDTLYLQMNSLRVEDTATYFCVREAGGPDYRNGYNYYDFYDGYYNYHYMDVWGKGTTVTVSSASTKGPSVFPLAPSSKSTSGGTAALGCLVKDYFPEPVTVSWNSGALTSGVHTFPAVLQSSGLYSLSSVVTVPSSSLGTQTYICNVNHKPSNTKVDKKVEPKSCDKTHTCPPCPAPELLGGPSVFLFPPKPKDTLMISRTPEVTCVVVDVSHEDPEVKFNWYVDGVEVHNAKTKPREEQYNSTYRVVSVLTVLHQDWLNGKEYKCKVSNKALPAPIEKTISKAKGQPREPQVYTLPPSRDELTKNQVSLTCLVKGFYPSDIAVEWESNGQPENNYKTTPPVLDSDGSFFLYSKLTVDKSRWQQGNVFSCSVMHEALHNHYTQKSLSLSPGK
Description: as §1, §2, §3, §4

I19R 2G12 = assay: In vitro degradation assay with purified proteases, substrate I19R 2G12; format: biochemical; conditions: for cleavage sites in I19R 2G12 heavy chain (arrows): N-terminal sequencing and mass spectrometry; for cleavage / degradation of I19R 2G12 by purified protease: purified protease 10-100 μg/mL, pH 5.5
I19R 2G12, sequence (as listed by the source, stated change not applied): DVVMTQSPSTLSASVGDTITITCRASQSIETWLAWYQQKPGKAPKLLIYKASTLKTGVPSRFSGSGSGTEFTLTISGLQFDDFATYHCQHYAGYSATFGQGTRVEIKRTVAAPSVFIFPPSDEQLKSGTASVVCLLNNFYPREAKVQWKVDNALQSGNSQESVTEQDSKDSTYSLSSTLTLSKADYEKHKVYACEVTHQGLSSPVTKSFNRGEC
I19R 2G12, sequence (as listed by the source, stated change not applied): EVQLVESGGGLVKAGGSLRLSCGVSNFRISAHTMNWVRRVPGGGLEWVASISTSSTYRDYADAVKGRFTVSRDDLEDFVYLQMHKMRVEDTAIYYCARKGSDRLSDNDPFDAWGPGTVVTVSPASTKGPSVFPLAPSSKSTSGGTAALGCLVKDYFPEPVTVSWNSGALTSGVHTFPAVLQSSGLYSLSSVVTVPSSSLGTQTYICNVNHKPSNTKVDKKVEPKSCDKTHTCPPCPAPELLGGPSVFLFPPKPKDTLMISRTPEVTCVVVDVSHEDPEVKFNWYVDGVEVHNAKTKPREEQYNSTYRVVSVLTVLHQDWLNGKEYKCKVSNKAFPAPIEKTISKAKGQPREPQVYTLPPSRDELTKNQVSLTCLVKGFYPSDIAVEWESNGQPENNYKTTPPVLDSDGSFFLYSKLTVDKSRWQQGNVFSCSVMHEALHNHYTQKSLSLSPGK
Description: as §1, §2
For isolation of mAb degradation products, antibodies ([…]) were digested with apoplastic fluid or purified subtilisin-like serine proteases in 500 μL 100 mM sodium acetate (pH 5.5) to completion. After addition of 10 μL settled rProtein A Sepharose 4 Fast Flow beads, the samples were incubated for 2 h at 4° C. under constant agitation. The beads were then collected by centrifugation, washed four times with 500 μL PBS prior to elution of the bound antibody fragments with 100 μL 100 mM glycine (pH 3.0). The eluate was immediately neutralized with 10 μL 1 M Tris/HCl (pH 8.0). This elution/neutralization cycle was repeated four times. All eluate fractions were combined and concentrated by ultrafiltration after buffer exchange into PBS containing 0.02% (v/v) NaN3.
Samples were fractionated by 12.5% SDS-PAGE under reducing conditions and then blotted on nitrocellulose membranes (GE […]).
as §4, with “(2014):493-500). Alternatively, antibodies or their degradation products were digested with PNGase F (ROCHE) to release their N-glycans, reduced with 10 mM DTE (1 h, 56° C.) and then fractionated on a THERMO PROSWIFT RP-4H column (250×0.20 mm) using a Dionex UltiMate 3000 HPLC system (THERMO […]).” for “(2014):493-500).”

SBT2 (SEQ ID No. 14) = assay: Kinetic analysis of protease-inhibitor interactions, SBT2; format: biochemical, Nicotiana benthamiana; conditions: recombinant inhibitor from E. coli; substrate Abz-VILDAVRA-Y(NO2)
SBT2 (SEQ ID No. 14), sequence (as listed by the source): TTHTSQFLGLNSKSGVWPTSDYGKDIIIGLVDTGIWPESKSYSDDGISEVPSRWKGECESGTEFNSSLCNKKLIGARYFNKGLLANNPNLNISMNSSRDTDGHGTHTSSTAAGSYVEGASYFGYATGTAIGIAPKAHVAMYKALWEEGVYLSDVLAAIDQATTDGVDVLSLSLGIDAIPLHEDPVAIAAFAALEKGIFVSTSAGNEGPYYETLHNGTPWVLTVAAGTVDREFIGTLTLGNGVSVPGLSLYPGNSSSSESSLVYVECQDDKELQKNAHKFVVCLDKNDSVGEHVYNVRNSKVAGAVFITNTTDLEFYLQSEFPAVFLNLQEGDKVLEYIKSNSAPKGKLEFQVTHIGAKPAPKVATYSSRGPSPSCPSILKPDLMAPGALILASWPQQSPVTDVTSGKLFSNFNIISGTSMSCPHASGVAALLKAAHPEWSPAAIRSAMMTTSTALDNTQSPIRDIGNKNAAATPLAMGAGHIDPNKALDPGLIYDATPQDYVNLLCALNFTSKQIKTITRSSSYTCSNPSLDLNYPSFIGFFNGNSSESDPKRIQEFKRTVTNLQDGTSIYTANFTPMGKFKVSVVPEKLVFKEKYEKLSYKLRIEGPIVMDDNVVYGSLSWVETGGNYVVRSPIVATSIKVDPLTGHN
Description: (§5) These assays were performed as described (Hohl M et al., 2017, J. Biol. Chem. 292, 6389-6401). A fluorogenic peptide substrate, Abz-[…]-Y(NO2) (SEQ ID NO: 37), was used for measuring the enzymatic activity of the subtilisin-like serine proteases tested. Recombinant inhibitors (prepared as described in Hohl M et al., 2017, J. Biol. Chem. 292, 6389-6401) were added in serial dilutions. Substrate cleavage was monitored in an Infinite M200 Pro microplate reader as increase in relative fluorescence (λex=320 nm; λem=420 nm). Inhibition constants (Ki) were calculated using the Morrison equation.

SBT1 (SEQ ID No. 2) = assay: Kinetic analysis of protease-inhibitor interactions, SBT1; format: biochemical, Nicotiana benthamiana; conditions: recombinant inhibitor from E. coli; substrate Abz-VILDAVRA-Y(NO2)
Description: as §5

Molecule	cleavage / degradation of 2F5 by purified protease (monoclonal antibody 2F5)	cleavage / degradation of PG9 by purified protease (PG9)	cleavage sites in I19R 2G12 heavy chain (arrows) (I19R 2G12)	cleavage / degradation of I19R 2G12 by purified protease (I19R 2G12)	other results
2G12: neutralizing anti-HIV antibody, heavy chain SEQ ID No. 24, light chain SEQ ID No. 28					antigen-binding activity of cleaved vs intact antibody (ELISA) (HIV-1 UG37 gp140): severely reduced binding; also recorded: much lower antigen-binding activity
trypsin [reference compound]	did not display cleavage activity; also recorded: cannot cleave				
SBT1: Nicotiana benthamiana subtilisin-like serine protease comprising SEQ ID No. 2 (protein, listed as Nicotiana benthamiana) MKGIISLFFCFSLFIVSFILREADSASQAQNNGIYIVYMGAAASSNGGTRHDQARLISSLIRRNKHAVVHSYNNGFSGFAARLSESEAKSMAQRPGVISVFPDPVLQLHTTHSWDFLKYQTDEKINSSPSSGSDSSLIGADTIIGILDTGIWPESESFNDKDMGPIPSRWNGTCMDGQDFGSSKCNKKIVGARFYEESDDSGTKIAGSARDENGHGTHVASTAAGSPVAGASYYGLAAGTATGGSPGSRISMYRVCTTFGCRGSAIMKAFDDAIADGVDVLSLSLGSSPGLEPDFPSNPIAIGAFHAVEKGITVVCSAGNSGPGPKTVVNTAPWILTVAATTIDRDFETDIVLGGNKLIKGGGINFGNMTKSSVYPLIHGNSTKSNDNVSEADARSCVPGSLDENKVKGKIVLCENLDDGEYFPSDKLDEVKSRGGVGFILIDDDERTVAPKFNSFSAGVVSKKDGNEILAYINSTRNPVASILPTVSITKYKPAPVVAYFSSRGPAYNTPNLLKPDITAPGVAILAAWPGNDTSEALPGQKPPIFNLLSGTSMSCPHVSGIAATVKAVNPTWSPSAVKSAIMTTAIQTNNLKAPITTVSGSKATPYDIGAGEASTSGPLKPGLVYETDVADYLQFLCSVGFNISQIKLISITVPEDFSCPKNSTSELVSNMNYPSIAISSLKENEPKKVTRTVTNTGEEASVYTTVIEAPKGLEVQVIPTKLEFTNKSKKLSYDVSFKASSTSKEDLFGSITWTNGKYKVRSPFVVSSN	degrade; also recorded: can cleave the heavy chains	degrade; also recorded: can cleave the heavy chains	↓TV and TV↓VT	degrade; also recorded: can cleave the heavy chains	cleavage sites in PG9 heavy chain (arrows) (PG9; N-terminal sequencing and mass spectrometry): DGYYNYHYM↓[…]
SBT2: Nicotiana benthamiana subtilisin-like serine protease comprising SEQ ID No. 14 (protein, listed as Nicotiana benthamiana) MANHITLCIWLLFFFISIFSLAKSETYIIHMDLSAMPKAFSSHHNWYLTTLSSVSDSSTNHKDFLSSKLVYAYTNAIHGFSASLSPSELEAIKYSPGYVSSIKDISVKIDTTHTSQFLGLNSKSGVWPTSDYGKDIIIGLVDTGIWPESKSYSDDGISEVPSRWKGECESGTEFNSSLCNKKLIGARYFNKGLLANNPNLNISMNSSRDTDGHGTHTSSTAAGSYVEGASYFGYATGTAIGIAPKAHVAMYKALWEEGVYLSDVLAAIDQAITDGVDVLSLSLGIDAIPLHEDPVAIAAFAALEKGIFVSTSAGNEGPYYETLHNGTPWVLTVAAGTVDREFIGTLTLGNGVSVPGLSLYPGNSSSSESSLVYVECQDDKELQKNAHKFVVCLDKNDSVGEHVYNVRNSKVAGAVFITNTTDLEFYLQSEFPAVFLNLQEGDKVLEYIKSNSAPKGKLEFQVTHIGAKPAPKVATYSSRGPSPSCPSILKPDLMAPGALILASWPQQSPVTDVTSGKLFSNFNIISGTSMSCPHASGVAALLKAAHPEWSPAAIRSAMMTTSTALDNTQSPIRDIGNKNAAATPLAMGAGHIDPNKALDPGLIYDATPQDYVNLLCALNFTSKQIKTITRSSSYTCSNPSLDLNYPSFIGFFNGNSSESDPKRIQEFKRTVTNLQDGTSIYTANFTPMGKFKVSVVPEKLVFKEKYEKLSYKLRIEGPIVMDDNVVYGSLSWVETGGNYVVRSPIVATSIKVDPLTGHN		capable of acting on; also recorded: can cleave the heavy chains	SD↓RL	capable of acting on; also recorded: can cleave the heavy chains	
SBT3: other serine protease (Cedzich A et al. 2009) (protein, UniProt O82777 113-761, looked up) Subtilisin-like protease SBT3: TTHTSDFLKLNPSSGLWPASGLGQDVIVAVLDSGIWPESASFQDDGMPEIPKRWKGICKPGTQFNASMCNRKLIGANYFNKGILANDPTVNITMNSARDTDGHGTHCASITAGNFAKGVSHFGYAPGTARGVAPRARLAVYKFSFNEGTFTSDLIAAMDQAVADGVDMISISYGYRFIPLYEDAISIASFGAMMKGVLVSASAGNRGPGIGSLNNGSPWILCVASGHTDRTFAGTLTLGNGLKIRGWSLFPARAFVRDSPVIYNKTLSDCSSEELLSQVENPENTIVICDDNGDFSDQMRIITRARLKAAIFISEDPGVFRSATFPNPGVVVNKKEGKQVINYVKNSVTPTATITFQETYLDTKPAPVVAASSARGPSRSYLGISKPDILAPGVLILAAYPPNVFATSIGTNILLSTDYILESGTSMAAPHAAGIAAMLKAAHPEWSPSAIRSAMMTTADPLDNTRKPIKDSDNNKAATPLDMGAGHVDPNRALDPGLVYDATPQDYVNLLCSLNFTEEQFKTIARSSASHNCSNPSADLNYPSFIALYSIEGNFTLLEQKFKRTVTNVGKGAATYKAKLKAPKNSTISVSPQILVFKNKNEKQSYTLTIRYIGDEGQSRNVGSITWVEQNGNHSVRSPIVTSPIIEVW	did not display cleavage activity; also recorded: cannot cleave				
S11: S. lycopersicum subtilisin propeptide-like inhibitor, SEQ ID No. 33, recombinant from E. coli (protein, Protease inhibitor) MMKKDQILSSILLFFFLFTAFITTMADSQASSQPSNESKVHIVYTEQPKDQEPEEYHIKTLTSVLGSEEAAKEALLYSYKHAASGFSAKLTAEQVSELSKLPGVLQVVPSQTVQLHTGRV					binding affinity to / inhibition of SBT2 (SBT2 (SEQ ID No. 14)): high affinities; binding affinity to / inhibition of SBT1 (SBT1 (SEQ ID No. 2)): high affinities
